Drawing on publication PMC5789848, this text covers fold change of KD against WT and Kd for 2 substances.

Series [1] concerns the target GST-Tax_(CACA) (HTLV-1 Tax with C23 and C29 changed to alanine, N-terminal GST fusion) (HTLV-1) (UniProt P03409). Put plainly: BLI; BLItz; GST-Tax covalently bound to an AR2G sensor; UPF1 His-HD proteins in running buffer (300 mM NaCl, 20 mM phosphate, 0.02% Tween 20, 0.1% albumin); 250 s association, 60 s dissociation. (In general: BLI is a label-free optical method that tracks binding on a fibre tip over time.)

The test system of series [2] is T1, UPF1-HD (Homo sapiens), Q92900-2.
T1 sequence: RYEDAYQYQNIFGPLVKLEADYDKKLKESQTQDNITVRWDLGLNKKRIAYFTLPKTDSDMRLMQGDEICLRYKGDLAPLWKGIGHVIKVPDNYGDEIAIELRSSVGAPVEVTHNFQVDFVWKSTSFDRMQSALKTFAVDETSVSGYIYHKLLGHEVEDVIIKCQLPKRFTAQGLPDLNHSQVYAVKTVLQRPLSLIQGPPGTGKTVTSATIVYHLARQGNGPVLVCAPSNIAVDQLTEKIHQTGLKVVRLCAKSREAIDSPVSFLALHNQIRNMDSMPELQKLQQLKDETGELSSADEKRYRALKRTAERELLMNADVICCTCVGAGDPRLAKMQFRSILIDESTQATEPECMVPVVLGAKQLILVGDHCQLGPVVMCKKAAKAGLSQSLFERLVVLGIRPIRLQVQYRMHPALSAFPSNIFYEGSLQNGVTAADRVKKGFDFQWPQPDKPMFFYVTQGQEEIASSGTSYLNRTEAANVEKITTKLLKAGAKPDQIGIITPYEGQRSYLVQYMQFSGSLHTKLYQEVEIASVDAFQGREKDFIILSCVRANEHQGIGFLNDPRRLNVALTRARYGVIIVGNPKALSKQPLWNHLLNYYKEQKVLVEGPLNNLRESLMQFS
The series can be described thus: BLI. As to conditions: BLI: 20 mM HEPES pH 7.5, 150 mM K acetate, 2 mM Mg acetate, 1 mM DTT, 6.3% glycerol, 0.1% NP-40; EMSA: 20 mM MES pH 6.0, 150 mM K acetate, 2 mM DTT, 0.2 ug/ul …. (In EMSA bound probe runs differently from free probe, usually more slowly.)

On to “UPF1-HD_(R843C), histidine-tagged (from UniProt Q92900-2 295-914) (domain or fragment)”, for which the fold change of KD against WT in series [1] was found to be 3.2 times.

Regarding 5'-biotin 30-mer ssDNA (BLI), the Kd (in general, the free concentration of one partner at which half of the binding sites on the other are occupied at equilibrium, for simple one-to-one binding) in series [2] was determined as 8.25 nM.
